Changes are numbered by the printed parent chain.
T1: EsCas13d, nuclease-dead (Eubacterium siraeum, UniProt B0MS50, R295A;H300A;R849A;H854A)
T1 sequence: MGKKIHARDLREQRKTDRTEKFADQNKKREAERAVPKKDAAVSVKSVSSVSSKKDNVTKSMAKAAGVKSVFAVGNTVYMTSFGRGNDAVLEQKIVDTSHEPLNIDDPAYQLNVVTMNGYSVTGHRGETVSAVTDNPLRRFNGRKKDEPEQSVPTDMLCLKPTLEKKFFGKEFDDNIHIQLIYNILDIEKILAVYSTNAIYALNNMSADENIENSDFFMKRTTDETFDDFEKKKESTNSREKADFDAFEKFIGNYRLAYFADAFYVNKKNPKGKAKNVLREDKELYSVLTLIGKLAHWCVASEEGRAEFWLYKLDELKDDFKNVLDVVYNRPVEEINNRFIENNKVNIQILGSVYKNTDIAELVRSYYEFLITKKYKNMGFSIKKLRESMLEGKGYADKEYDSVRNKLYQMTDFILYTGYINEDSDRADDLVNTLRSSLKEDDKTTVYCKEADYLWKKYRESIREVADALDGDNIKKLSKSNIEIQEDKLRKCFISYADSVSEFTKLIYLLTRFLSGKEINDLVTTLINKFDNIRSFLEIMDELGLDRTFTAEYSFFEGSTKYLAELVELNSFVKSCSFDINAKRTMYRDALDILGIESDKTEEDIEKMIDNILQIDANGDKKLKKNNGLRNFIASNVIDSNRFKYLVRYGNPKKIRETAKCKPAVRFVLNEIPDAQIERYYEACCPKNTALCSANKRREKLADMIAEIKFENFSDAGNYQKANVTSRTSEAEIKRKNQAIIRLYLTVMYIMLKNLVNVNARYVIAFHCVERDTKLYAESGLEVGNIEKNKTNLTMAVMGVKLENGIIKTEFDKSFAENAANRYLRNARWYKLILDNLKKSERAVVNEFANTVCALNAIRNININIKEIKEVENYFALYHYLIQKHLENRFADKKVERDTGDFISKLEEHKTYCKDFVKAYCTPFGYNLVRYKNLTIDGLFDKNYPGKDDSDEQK

B1: target 2 MT 5'PFS ACU 3'PFS CUA (mixed)
RNA 1: CACCCGUGCAAAAUUGCAGGGGUCUAAAACCUUCUCCAAAUUGUUUCAUCCU
RNA 2: GGGAAUGGAUCCACAUCUACGAAUUCACUAGGAUGAAACAAUUUGGAGAAGCUAAGAUCGGAAGAGCACACGU
B2: target 2 MT 5'PFS CUC 3'PFS AGA (mixed)
RNA 1: B1 RNA 1
RNA 2: B1 RNA 2 with A27C, C28U, U29C, C52A, U53G
B3: target 2 MT 5'PFS UUG 3'PFS AGC (mixed)
RNA 1: B1 RNA 1
RNA 2: B1 RNA 2 with A27U, C28U, U29G, C52A, U53G, A54C
B4: target 2 MT 5'PFS AAA 3'PFS CGC (mixed)
RNA 1: B1 RNA 1
RNA 2: B1 RNA 2 with C28A, U29A, U53G, A54C
B5: target 2 MT 5'PFS UGC 3'PFS CUA (mixed)
RNA 1: B1 RNA 1
RNA 2: B1 RNA 2 with A27U, C28G, U29C
B6: target 2 MT 5'PFS UUU 3'PFS UAA (mixed)
RNA 1: B1 RNA 1
RNA 2: B1 RNA 2 with A27U, C28U, C52U, U53A
B7: target 2 MT 5'PFS CUC 3'PFS AGC (mixed)
RNA 1: B1 RNA 1
RNA 2: B1 RNA 2 with A27C, C28U, U29C, C52A, U53G, A54C
B8: target 2 MT 5'PFS UGC 3'PFS CUG (mixed)
RNA 1: B1 RNA 1
RNA 2: B1 RNA 2 with A27U, C28G, U29C, A54G
B9: target 2 MT 5'PFS GAA 3'PFS AUG (mixed)
RNA 1: B1 RNA 1
RNA 2: B1 RNA 2 with A27G, C28A, U29A, C52A, A54G
B10: target 2 MT 5'PFS AUU 3'PFS UGU (mixed)
RNA 1: B1 RNA 1
RNA 2: B1 RNA 2 with C28U, C52U, U53G, A54U
B11: target 2 MT 5'PFS UUG 3'PFS AGA (mixed)
RNA 1: B1 RNA 1
RNA 2: B1 RNA 2 with A27U, C28U, U29G, C52A, U53G
B12: target 2 MT 5'PFS CUC 3'PFS AGU (mixed)
RNA 1: B1 RNA 1
RNA 2: B1 RNA 2 with A27C, C28U, U29C, C52A, U53G, A54U
B13: target 2 MT 5'PFS GAA 3'PFS AUA (mixed)
RNA 1: B1 RNA 1
RNA 2: B1 RNA 2 with A27G, C28A, U29A, C52A
B14: target 2 MT 5'PFS GUU 3'PFS UAU (mixed)
RNA 1: B1 RNA 1
RNA 2: B1 RNA 2 with A27G, C28U, C52U, U53A, A54U
B15: target 2 MT 5'PFS UUU 3'PFS UAC (mixed)
RNA 1: B1 RNA 1
RNA 2: B1 RNA 2 with A27U, C28U, C52U, U53A, A54C
B16: target 2 MT 5'PFS GUU 3'PFS UAA (mixed)
RNA 1: B1 RNA 1
RNA 2: B1 RNA 2 with A27G, C28U, C52U, U53A
B17: target 2 MT 5'PFS UCU 3'PFS ACU (mixed)
RNA 1: B1 RNA 1
RNA 2: B1 RNA 2 with A27U, C52A, U53C, A54U
B18: target 2 MT 5'PFS GUU 3'PFS UAC (mixed)
RNA 1: B1 RNA 1
RNA 2: B1 RNA 2 with A27G, C28U, C52U, U53A, A54C
B19: target 2 MT 5'PFS CUC 3'PFS AGG (mixed)
RNA 1: B1 RNA 1
RNA 2: B1 RNA 2 with A27C, C28U, U29C, C52A, U53G, A54G
B20: target 2 MT 5'PFS ACU 3'PFS CUG (mixed)
RNA 1: B1 RNA 1
RNA 2: B1 RNA 2 with A54G
B21: target 2 MT 5'PFS AAU 3'PFS UGU (mixed)
RNA 1: B1 RNA 1
RNA 2: B1 RNA 2 with C28A, C52U, U53G, A54U
B22: target 2 MT 5'PFS UGC 3'PFS CUU (mixed)
RNA 1: B1 RNA 1
RNA 2: B1 RNA 2 with A27U, C28G, U29C, A54U
B23: target 2 MT 5'PFS CGA 3'PFS CUC (mixed)
RNA 1: B1 RNA 1
RNA 2: B1 RNA 2 with A27C, C28G, U29A, A54C
B24: target 2 MT 5'PFS UAG 3'PFS UGA (mixed)
RNA 1: B1 RNA 1
RNA 2: B1 RNA 2 with A27U, C28A, U29G, C52U, U53G
B25: target 2 MT 5'PFS AAA 3'PFS CGA (mixed)
RNA 1: B1 RNA 1
RNA 2: B1 RNA 2 with C28A, U29A, U53G
B26: target 2 MT 5'PFS GAA 3'PFS AUC (mixed)
RNA 1: B1 RNA 1
RNA 2: B1 RNA 2 with A27G, C28A, U29A, C52A, A54C
B27: target 2 MT 5'PFS UUG 3'PFS AGG (mixed)
RNA 1: B1 RNA 1
RNA 2: B1 RNA 2 with A27U, C28U, U29G, C52A, U53G, A54G
B28: target 2 MT 5'PFS UUU 3'PFS UAU (mixed)
RNA 1: B1 RNA 1
RNA 2: B1 RNA 2 with A27U, C28U, C52U, U53A, A54U
B29: target 2 MT 5'PFS UGC 3'PFS CUC (mixed)
RNA 1: B1 RNA 1
RNA 2: B1 RNA 2 with A27U, C28G, U29C, A54C
B30: target 2 MT 5'PFS UUG 3'PFS AGU (mixed)
RNA 1: B1 RNA 1
RNA 2: B1 RNA 2 with A27U, C28U, U29G, C52A, U53G, A54U
B31: target 1 insA 3' of 17,insU 3' of 9 (mixed)
RNA 1: CACCCGUGCAAAAAUGCAGGGGUCUAAAACUGAGCGGAUAACCUCUCUAUGG
RNA 2: GGGAAUGGAUCCACAUCUACGAAUUCGUACCAUAGAAGAGGUUAUUCCGCUCACCGAGAUCGGAAGAGCACACGU
B32: target 1 insA 3' of 21,insU 3' of 6 (mixed)
RNA 1: B31 RNA 1
RNA 2: B31 RNA 2 with U33A, A34U, G35A, A36G, U46C, C48U
B33: target 1 insG 3' of 4,insA 3' of 2 (mixed)
RNA 1: B31 RNA 1
RNA 2: GGGAAUGGAUCCACAUCUACGAAUUCGUACCAUAGAGAGGUUAUCCGCGUCAACCGAGAUCGGAAGAGCACACGU

These binders were tested against T1, EsCas13d, nuclease-dead (assay: crRNA (strand 1, pre-loaded); Mg2+; 40 mM Tris-HCl pH 7.5, 150 mM NaCl, 6 mM MgCl2, 1 mM DTT, 0.1% Tween-20, 0.2 mg/ml BSA; 25 C; 10 min per concentration, then washed). Conditions: tags: His6-TwinStrep-SUMO cleaved; N-terminal SNAP kept (SNAP-Surface 488); label: 3' end held by stalled T7 RNA polymerase.

Binder	Kd [nM]
B1	3.5 ± 0.5
B2	1.68 ± 0.16
B3	13.7 ± 2
B4	3.3 ± 1
B5	16 ± 6
B6	10.9 ± 1.7
B7	1.98 ± 0.25
B8	34 ± 9
B9	8.3 ± 1.1
B10	13.5 ± 1.7
B11	7.9 ± 0.5
B12	3.5 ± 0.8
B13	8.1 ± 1.4
B14	16.2 ± 2.7
B15	9.1 ± 1.2
B16	15.3 ± 3.3
B17	9.4 ± 1.8

Binder	Kd [nM]
B18	22 ± 4
B19	2.8 ± 0.5
B20	6 ± 0.7
B21	9.1 ± 1.4
B22	~110
B23	9.3 ± 1.8
B24	4.1 ± 0.8
B25	3.4 ± 0.8
B26	10.2 ± 1.6
B27	14.1 ± 1.5
B28	8.4 ± 0.9
B29	26 ± 6
B30	14.5 ± 2.2
B31	18.6 ± 3.3
B32	20.3 ± 1.5
B33	5.43 ± 0.18
